Experiments:
[1] = target: T1, hIL-4R on cells (STAT6-transfected HEK293, TF1, TF1/A12) (human, UniProt P24394 26-825); assay: cell-based or functional assay
T1 sequence (looked up): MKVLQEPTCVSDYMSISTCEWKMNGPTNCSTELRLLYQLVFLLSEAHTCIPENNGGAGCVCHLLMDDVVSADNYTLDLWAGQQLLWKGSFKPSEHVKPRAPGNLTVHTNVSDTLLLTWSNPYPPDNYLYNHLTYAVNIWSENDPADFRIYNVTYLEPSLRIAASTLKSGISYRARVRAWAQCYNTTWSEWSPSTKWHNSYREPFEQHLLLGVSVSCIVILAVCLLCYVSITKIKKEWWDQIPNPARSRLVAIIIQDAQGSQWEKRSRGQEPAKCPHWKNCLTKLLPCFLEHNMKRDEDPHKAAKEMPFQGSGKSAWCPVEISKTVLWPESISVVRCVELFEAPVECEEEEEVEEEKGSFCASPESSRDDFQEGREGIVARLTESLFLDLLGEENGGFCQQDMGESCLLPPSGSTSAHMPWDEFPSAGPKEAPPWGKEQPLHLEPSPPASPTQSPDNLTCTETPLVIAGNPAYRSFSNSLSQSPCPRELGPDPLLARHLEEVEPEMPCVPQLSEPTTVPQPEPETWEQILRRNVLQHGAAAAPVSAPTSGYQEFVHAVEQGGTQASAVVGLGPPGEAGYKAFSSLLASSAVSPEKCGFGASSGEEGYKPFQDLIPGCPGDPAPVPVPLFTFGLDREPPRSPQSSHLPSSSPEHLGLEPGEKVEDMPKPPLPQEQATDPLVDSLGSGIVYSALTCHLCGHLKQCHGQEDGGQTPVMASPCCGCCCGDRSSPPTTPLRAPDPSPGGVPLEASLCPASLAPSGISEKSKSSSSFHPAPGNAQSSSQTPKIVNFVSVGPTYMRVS

[2] = target: T1, hIL-4R on cells (STAT6-transfected …); assay: cell-based or functional assay; remark: listed apart in the source
mouse IL-4R = target: T2, mouse IL-4R (mouse, UniProt P16382 26-233, limits assumed); assay: binding affinity test of Example 2 (method not restated)
T2 sequence (looked up): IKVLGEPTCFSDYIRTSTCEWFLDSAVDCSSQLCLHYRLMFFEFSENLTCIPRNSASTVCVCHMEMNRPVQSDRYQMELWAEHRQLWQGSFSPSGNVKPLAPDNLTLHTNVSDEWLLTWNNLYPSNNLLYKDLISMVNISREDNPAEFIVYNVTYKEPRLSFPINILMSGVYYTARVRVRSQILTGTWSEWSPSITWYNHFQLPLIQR

[3] = target: T3, monomeric hIL-4R (R&D Systems) (human, UniProt P24394 26-231); assay: SPR (BIAcore 2000); antibody captured, monomeric hIL-4R injected
T3 construct: Bought (R&D Systems); also called hIL-4R monomer
T3 sequence: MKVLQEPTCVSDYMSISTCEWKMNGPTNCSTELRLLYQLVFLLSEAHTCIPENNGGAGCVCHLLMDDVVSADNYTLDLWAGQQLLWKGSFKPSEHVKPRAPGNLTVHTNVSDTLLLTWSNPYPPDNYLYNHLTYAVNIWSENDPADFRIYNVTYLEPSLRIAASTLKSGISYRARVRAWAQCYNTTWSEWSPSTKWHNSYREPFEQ
Description: (§1) Binding affinity (KD) of selected antibodies with respect to hIL-4R was determined using a real-time biosensor surface plasmon resonance assay (BIAcore™ 2000). Briefly, antibody was captured on a goat anti-mouse (GAM) IgG polyclonal antibody surface created through direct chemical coupling of the GAM IgG to a BIAcore™ chip to form a captured antibody surface. […] Binding of antigen to antibody and dissociation of the bound complex, were monitored in real time. Equilibrium dissociation constants (KD) and dissociation rate constants were ascertained by performing kinetic analysis using BIA evaluation software. BIA evaluation software was also used to calculate the half-life of antigen/antibody complex dissociation (T_{1/2}). […] The binding affinity of anti-hIL-4R antibodies to either mouse or monkey (Macaca fascicularis) IL-4R was also tested.

dimeric hIL-4R-hFc [4] = target: T4, dimeric hIL-4R-hFc (human, UniProt P24394 26-232); assay: SPR (BIAcore 2000); antibody captured, dimeric hIL-4R-hFc injected
T4 construct: also called hIL-4R-Fc; not shown: human Fc (hFc)
T4 sequence: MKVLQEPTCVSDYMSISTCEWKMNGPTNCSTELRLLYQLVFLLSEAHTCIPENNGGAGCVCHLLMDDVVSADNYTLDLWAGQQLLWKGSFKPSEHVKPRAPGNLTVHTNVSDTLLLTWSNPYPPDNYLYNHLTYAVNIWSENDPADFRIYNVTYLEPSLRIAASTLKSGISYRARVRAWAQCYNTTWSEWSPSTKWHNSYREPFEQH
Description: as §1

dimeric hIL-4R-hFc [5] = target: T4, dimeric hIL-4R-hFc; assay: ELISA; antibody titrated against 25 pM hIL-4R-Fc, free receptor caught on hIL-4 plate
Description: Concentration of free hIL-4R-Fc (no antibody bound) was determined using a hIL-4R-specific sandwich ELISA. […] After a one-hour incubation at room temperature, the detection plate was washed and plate-bound hIL-4R-hFc was detected using HRP conjugated goat anti-hFc polyclonal antibodies and developed using colorimetric substrates such as BD OptEIA™ (BD Biosciences Pharmingen, San Diego, Calif.). After the reaction was stopped with 1 M phosphoric or sulfuric acid, absorbances at 450 nm were recorded and the data were analyzed using GraphPad™ Prism software.

dimeric hIL-4R-hFc [6] = target: T4, dimeric hIL-4R-hFc; assay: SPR; reduction of hIL-4 (50 nM) binding to captured hIL-4R-hFc after antibody; competitor hIL-4
Excerpt: Purified hIL-4R-hFc molecules were captured by goat anti-human IgG polyclonal antibody immobilized on CM-5 to a density of 260 RU, to prepare a receptor-coated surface.

Binder	STAT6 Bioassay IC50 (HEK293 STAT6 luciferase, 10 pM hIL-4) [1] [nM]	TF1/A12 Bioassay IC50 (proliferation, 20 pM hIL-4) [1] [nM]	TF1 Bioassay IC50 (proliferation, 50 pM hIL-4) [1] [nM]	STAT6 Bioassay IC50 (HEK293 STAT6 luciferase, 40 pM hIL-13) [2]	TF1 Bioassay IC50 (proliferation, 150 pM hIL-13) [2] [nM]	binding result (mouse IL-4R)	Kd [3] [nM]	T1/2 monomeric [3] [min]	Kd (dimeric hIL-4R-hFc [4]) [nM]	T1/2 dimeric (dimeric hIL-4R-hFc [4]) [h]	IC50 (dimeric hIL-4R-hFc [5]) [nM]	% Inhibition (BIAcore) (dimeric hIL-4R-hFc [6]) [%]
VAB 5C5-11 (antibody, V domains shown, Apparently tested with mouse constant region (anti-mouse IgG capture/detection)) VH: QVQLVQSGAEVQKPGASVKVSCKASGYTFTGQYIHWVRQAPGQGLEWMGWINPNSGGTNFAQKFQDRVTMTRDTSIGTVYMELRRLTSDDTAVFYCVREKRGFDIWGQGTMVTVSS VL: not shown	0.14	0.37	0.21	60 pM	0.82	no binding	0.13	47	0.027	7.7	0.024	96
VAB 1H1-2 (antibody, V domains shown, Apparently tested with mouse constant region (anti-mouse IgG capture/detection)) VH: QVQLVQSGAEVKKPGASVKVSCKASGYTFTSYGISWVRQAPGQGLEWMGWISVYNGNTNYAQKLQGRVTMTTDTSTSTAYMDLRSLRSDDAAVYYCARGSGYDFDYWGQGTLVTVSS VL: AIQMTQSPSSLSASVGDRVTITCRASQGIRNALGWYQQKPGKAPKLLIYAASSLQSGVPSRFSGSGSGTDFTLTISSLQSEDFATYYCLQDYNYPYTFGQGTKLEIK	> 10	> 50	–	> 10 nM	–	no binding	34.9	8	0.139	8.2	0.146	78
VAB 6C10-14 (antibody, V domains shown, Apparently tested with mouse constant region (anti-mouse IgG capture/detection)) VH: QVQLVQSGAEVKKPGASVKVSCKASGYTFTNYGLTWVRQAPGRGLEWMGWISVYNGNTNYAQTLKGRVTMTTDTSTSTAYMELKSLRSDDTAVYYCARGSGYDFDYWGQGTLVTVSS VL: AIQMTQSPSSLSASVGDRVAITCRASQDIRNDLGWYQQKPGKAPKLLIHTASSLQSGVPSRFSGSGSGTDFTLTISNLQPEDFATYYCLQDNSYPYTFGQGTKLEIN	> 10	23	–	> 10 nM	–	no binding	1.77	73	0.286	6.2	0.441	79
VAB 3B4-10 (antibody, V domains shown, Apparently tested with mouse constant region (anti-mouse IgG capture/detection)) VH: QVHLVQSGAEVKKPGASVKVSCKASGYTFTNYGIGWVRQAPGQGLEWMGWISIYNGNTNYAQRLQGRVTMTTDTSTSTAFMDLRSLKSDDTAVYYCARGSGYNFDHWGQGTLVTVSS VL: AIQMTQSPSSLSASVGDRVTITCRASQGIRNDLGWYQQIPGKAPKLLIYAASSLQSGVPSRFSGSGSGTDFTLTISNLQPEDFAVYFCLQDNTYPYTFGQGTNLESK	> 10	> 50	–	8.3 nM	–	no binding	0.59	102	0.053	20.4	0.322	72
VAB 8G10-1 (antibody, V domains shown, Apparently tested with mouse constant region (anti-mouse IgG capture/detection)) VH: QVQLVQSGPEVKKPGASVKVSCKASGYTFTNYGISWVRQAPGQGLEWMGWISVYNGNINYAQKLQGRVTMTTDTSTSTAYMDLRSLRSDDTAVYYCARGSGYDFDYWGQGTLVTVSS VL: AIQMTQSPSSLSASVGDRVTITCRASQDIRNALGWYQQKPGKAPKLLIYAASSLQSGVPSRFSGSASGTDFTLTISSLQPEDFAAYYCLQDYNYPYTFGQGTKLEIK	> 10	> 50	–	> 10 nM	–	no binding	7.71	28	5.51	4.1	0.244	74
VX 4E7-9 (antibody, V domains shown, 387/389; Apparently tested with mouse constant region (anti-mouse IgG capture/detection)) VH: QVQLVQSGAEVKKPGASVKVSCKASGYTFTNYGISWVRQAPGQGLEWMGWISVYNGKTNYAQKLQGRVTMTTDTSTTTAYMEMRSLRSDDTAVYYCARGSGYDLDYWGQGTLVSVSS VL: AIQMTQSPSSLSASVGDRVTITCRASQGIRNALGWYQQKPGKAPKLLIYAASSLQSGVPSRFSGSGSGTDFTLTFSSLQPEDFATYYCLQDFNYPYTFGQGTKLEIK	7.9	10	–	6.3 nM	–	no binding	1.43	48	0.111	19.1	0.118	79
VAB 4D5-3 (antibody, V domains shown, Apparently tested with mouse constant region (anti-mouse IgG capture/detection)) VH: QVQLVQSGPEVKKPGASVKVSCKASGYTFTNYGISWVRQAPGQGLEWMGWISVYNGKTNYAQKFQGRVTMTTDTSTSTAYMDLRSLRSDDTAVYYCARGSGYDFDYWGQGTLVTVSS VL: AIQMTQSPSSLSASVGDRVTITCRASQGIRNALGWYQQKPGKAPKLLIFASSSLQSGVPSRFSGSGSGTDFTLTIRSLQPEDFAAYYCLQDYNYPYTFGQGTKLEIK	3.8	21	–	3.3 nM	–	no binding	2.02	35	0.032	20.4	0.24	82
VAB 11G8-1 (antibody, V domains shown, Apparently tested with mouse constant region (anti-mouse IgG capture/detection)) VH: QVQLVQSGAEVKKPGASVKVSCKASGYTFTNYGISWVRQAPGQGLEWMGWISVYNGHTNYAQKLQGRVTMTTDTSTSTAYMELRSLRSDDTAVYYCARGSGYDFDSWGQGTLVTVSS VL: AIQMTQSSSSLSASVGDRVTITCRASQAIRNALGWYQQKPGKAPKVLIYAASSLQSGIPSRFSGSGSGTDFTLTISSLQPEDFATYYCLQDYDYPYTFGQGTKLEIK	> 10	> 50	–	8.8 nM	–	no binding	1.63	25	0.108	8.7	0.24	77
